The target of this experiment is ClC-ec1 C85A/H234C labelled with Cy5 (WT-Cy5) (Escherichia coli) (UniProt P37019). Kind of experiment: single-molecule photobleaching of subunits captured into liposomes (TIRF); high-density proteoliposomes (χ = 7.5 × 10^-6 subunit/lipid) diluted 10X to 1000X by freeze/thaw fusion with empty 2:1 POPE/POPG vesicles, incubated at room temperature, time course after freeze/thaw.

In turn, “ClC-ec1 C85A/H234C labelled with Cy5 (WT-Cy5) (from UniProt P37019 1-473) (natural protein)” displayed a mid-point of the convergence of the 1000X diluted sample to the reconstituted probabilities of 13 days.

The values above are taken from article PMC5010387.
